Assay [1] addresses T1, full-length human cystinosin-LKG with a C-terminal Flag tag (human, UniProt O60931-2 23-400, limits assumed).
T1 construct: Expressed in HEK-293S GnTI- cells and purified in DDM then digitonin; It was reconstituted in amphipols for immunisation; also called recombinant human Cystinosin; wild-type (WT) human Cystinosin; not shown: C-terminal Flag tag
T1 sequence (looked up): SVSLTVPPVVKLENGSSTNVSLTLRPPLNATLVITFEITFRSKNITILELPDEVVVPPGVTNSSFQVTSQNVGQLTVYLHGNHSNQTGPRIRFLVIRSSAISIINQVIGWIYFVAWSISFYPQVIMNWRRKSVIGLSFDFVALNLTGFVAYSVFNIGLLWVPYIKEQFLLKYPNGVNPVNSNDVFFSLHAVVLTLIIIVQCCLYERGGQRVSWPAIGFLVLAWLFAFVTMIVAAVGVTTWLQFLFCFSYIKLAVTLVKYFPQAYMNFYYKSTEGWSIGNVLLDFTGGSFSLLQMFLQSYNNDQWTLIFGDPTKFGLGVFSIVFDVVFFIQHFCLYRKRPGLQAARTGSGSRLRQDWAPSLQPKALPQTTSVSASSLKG
The assay can be described thus: size-exclusion chromatography (gel filtration) of Cystinosin incubated with Fab3H5 at a 1:1.5 molar ratio, with a polyacrylamide gel of the peak fraction; the sheet is marked pH7.0. The method, then: To assemble Cystinosin-Fab^3H5 complex, purified Cystinosin was incubated with Fab^3H5 at a 1:1.5 molar ratio at 4° C. for 30 minutes. The mixture was then purified by SEC using the aforementioned buffer (FIG. 1A). Peak fractions were collected and concentrated to […]. The isolated complex was then used for functional and structural studies. In particular the complex was used in Cryo-EM studies.

Assay [2] deals with T1, full-length human cystinosin-LKG with a …. As to the kind of experiment: ELISA and immunoprecipitation screen of hybridoma supernatants; ELISA and immunoprecipitation screen of hybridoma clone (folded cystinosin). A general note: In an ELISA, binding on a coated surface is turned into a signal by an enzyme label.

B1: Fab3H5 (Fab fragment of IgG-3H5 generated by papain cleavage) (Fab, V domains shown)
VH: EVMLVESGGGLVKPGGSLKLSCAASGFTFSNYAMSWVRQTPEKRLEWVAAISGNEGTYTYYPDSVRGRFTISRDNARNNLYLQISSLRSEDTALYYCARYGLVGALDFWGQGAS
VL: DIQMNQSPSTLSASLGDTITITCRASQNIDVWLNWYQQKPGDIPKLLIYEASNLHTGVPSRFSGSGSGTDFTLAISSLQPEDIATYYCLQGQDYPFTFGSGTK
notes: The reaction was stopped with iodoacetamide
Turning to B1, in assay [1], the binding result is given as “binds”.

B2: IgG-3H5, a mouse monoclonal anti-human Cystinosin antibody (antibody, V domains shown)
VH: EVMLVESGGGLVKPGGSLKLSCAASGFTFSNYAMSWVRQTPEKRLEWVAAISGNEGTYTYYPDSVRGRFTISRDNARNNLYLQISSLRSEDTALYYCARYGLVGALDFWGQGAS
VL: DIQMNQSPSTLSASLGDTITITCRASQNIDVWLNWYQQKPGDIPKLLIYEASNLHTGVPSRFSGSGSGTDFTLAISSLQPEDIATYYCLQGQDYPFTFGSGTK
notes: also called 3H5 antibody; monoclonal antibody 3H5
As for B2, the binding result in assay [2] is “binds”.

The values are drawn from patent US20240002528A1 (University of Texas, published 2024).
